This test deals with VEGFR-2.

In the case of “VEGF-A (from UniProt P15692 27-191) (ligand)”, the concentration for a half-maximal effect (EC50 (read off the curve)) (commonly the concentration needed to bring the measured effect to its halfway point) came out at 5 ng/mL.

The values above are taken from patent US20260034244A1.
